Assay results taken from the supplement of paper PMC10126150.
± gives the standard deviation of the averaged measurements.

Test system: ATP
Assay: switch fluorescence ratio, 500 uM ATP over buffer (Cy3 cluster intensity, sum of 5 cycles each) (fold (ratio)); higher = stronger signal-on switching upon ATP binding; sequences stand for … in TCGTCGGCAGCGTCAGATGTGTATAAGAGACAGTTTTTTTTTTTTTTTTTTTTTTTTT…TC
Conditions: aptamer strand: ATP DNA aptamer (quencher-CACCTGGGGGAGTATTGCGGAGGAAGG + anchor), 100 nM annealed; ATP concentration: 500 uM
In short: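 Per cluster, summed Cy3 intensity from the target cycles was divided by that from the buffer cycles to give the fluorescence ratio, then averaged per switch-domain sequence. Clusters outside 100-1000 RFU were excluded. The Cy3-labelled switching-strand clusters, on a modified Illumina MiSeq flow-cell, were annealed to 100 nM quencher-labelled ATP aptamer and imaged in selection buffer, then after 15 min with 500 uM ATP at 22 °C, for five cycles with NaOH stripping and re-annealing between them.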
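Note: ATP exposure 15 min at 22 °C before imaging.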

Sequence | switch fluorescence ratio
ACATGAGGGG | 1.026 ± 0.0094
ATAAAAACAT | 1 ± 0.027
TATGCCGGGG | 0.988 ± 0.057
GGACCCTAAC | 1.08 ± 0.062
AACTTCAGCT | 0.995 ± 0.03
TAGTAATCGT | 1.01 ± 0.063
CACGCGGAGG | 1.03 ± 0.039
GAATTGTACC | 1.03 ± 0.028
GATGAATGGA | 0.959 ± 0.011
GAAAGGCAAA | 1.025 ± 0.0026
GTTATCAGAT | 1.02 ± 0.021
CGAGGGTAGA | 1.01 ± 0.03
TTATAATGCC | 0.997 ± 0.078
TTGGTGCCGT | 1.13 ± 0.046
TTTATATTGG | 1.034 ± 0.00088
GGATTCCGGG | 0.988 ± 0.027
TTTAATTTTG | 1 ± 0.036
CCAGGGGCTT | 1.31 ± 0.41
CCTTATGGCG | 0.996 ± 0.076
ACGATCCACG | 1.04 ± 0.045
TTTTTGGCAT | 1.01 ± 0.033
AGGGAAGCT | 1.05 ± 0.015
GGTATTGTGT | 1.02 ± 0.028
CTAGTAGAAG | 1.01 ± 0.016
TTAATGCGCA | 1 ± 0.019

Sequence | switch fluorescence ratio
TGATTTGAAG | 0.9464 ± 0.007
TCGGCGGGGA | 1.05 ± 0.14
AGGGCCCCTG | 0.9941 ± 0.0044
GGATTAGGGA | 1.01 ± 0.03
GATGATCGTT | 0.988 ± 0.0094
ATAGAGCGCT | 0.988 ± 0.023
ACTTTAGGGG | 1.06 ± 0.044
TGATTGGAGG | 0.994 ± 0.038
TGGCCGTGGC | 1.03 ± 0.05
AGTGGGAAAT | 0.994 ± 0.015
GAAAGAAGTC | 1.05 ± 0.02
GGGGGAGGGG | 1 ± 0.043
AGAATTAGTG | 0.953 ± 0.1
TTGATAATAG | 1 ± 0.024
TGGATGAAGA | 1.025 ± 0.0078
TAATATCCTA | 1 ± 0.048
TTTGACTTCA | 1.03 ± 0.018
ATGGTGTTCG | 0.987 ± 0.019
TTGAATTTGA | 1 ± 0.028
CTACTTGATA | 0.978 ± 0.017
CACTCCTGTG | 1.01 ± 0.04
GCACGAGGGG | 0.979 ± 0.047
TTATGGTACA | 0.98 ± 0.019
CACTCGCCTC | 1.134 ± 0.0068
CATAATCGCA | 1.04 ± 0.021

Sequence | switch fluorescence ratio
GAGACAAGGA | 0.97095 ± 8.1e-05
ACCGGCCTGG | 1 ± 0.025
TGGGCGTGTG | 1.02 ± 0.017
GCTTGAGATT | 0.986 ± 0.015
TTTTCAACAC | 1.04 ± 0.033
CGGGGCGGGG | 0.985 ± 0.012
ACACTAGGGG | 1.23 ± 0.17
AAGCCAAGGT | 1.033 ± 0.0084
ACCACAGTTC | 1.06 ± 0.015
CACTAGTAAA | 0.9984 ± 0.0094
TTGTGAAGGC | 1.04 ± 0.015
GATAGTCGTG | 0.994 ± 0.0056
GGTTTGCGGG | 1.01 ± 0.0095
TGGATCAGTG | 0.993 ± 0.046
GGGATCGGGG | 0.988 ± 0.019
TAAAGGGGTT | 0.986 ± 0.035
ATAAAGCTTA | 1 ± 0.03
TTTACCTATA | 1.02 ± 0.013
GGGGCGTTTT | 0.998 ± 0.023
GCTGCTGGCC | 0.999 ± 0.044
TGTTTCTGGT | 0.969 ± 0.038
ACGGGGGGAG | 1.01 ± 0.035
TCGGTTTCG | 0.989 ± 0.095
AAATTTCGTT | 0.966 ± 0.016
TTACGCCCTT | 1.11 ± 0.08

Sequence | switch fluorescence ratio
CGTAGTCTGG | 1.05 ± 0.038
GGTGATGTGT | 1.004 ± 0.0075
GAGGCTCGGA | 0.982 ± 0.029
TTTGAATTCG | 1.009 ± 0.0022
CAATGCATGC | 1.14 ± 0.082
TGCTTTTAGG | 0.996 ± 0.017
TGAGGTCACG | 0.982 ± 0.036
CTATAACGGG | 0.981 ± 0.0067
CTGGCATTTC | 1.37 ± 0.047
AATGGGAAGT | 0.991 ± 0.019
CTAACGGGCT | 0.995 ± 0.058
AAGGCACTTT | 1.02 ± 0.013
GGTATAGAGA | 0.986 ± 0.051
ACGGAAGGTT | 1.03 ± 0.043
TCTAAAATTA | 1.007 ± 0.0046
GAGCTCCAGA | 1.0093 ± 0.00081
GTTAAATTCA | 1 ± 0.024
AAAGAATTCA | 1.05 ± 0.051
AGGTCTTCCG | 1 ± 0.011
GGCCTGGGTA | 1 ± 0.031
CAAGTGTTGG | 1.01 ± 0.05
TTACTTTGAG | 1.02 ± 0.048
CGGTAGCGGG | 1.008 ± 0.007
ATGGACTGAA | 0.992 ± 0.013
TTGGCAGATT | 1.004 ± 0.0061

Sequence | switch fluorescence ratio
TCCCCGGGCA | 0.995 ± 0.04
AGACTGTGGC | 0.991 ± 0.0061
GCGATTGAGG | 0.9891 ± 0.005
GTGTTGAGAA | 0.98 ± 0.015
TGTTGCGTTA | 0.985 ± 0.021
GGGTGATCGA | 0.98 ± 0.054
TAGCTCCGGG | 1.055 ± 0.0063
TGGGGGACAT | 1.01 ± 0.028
CTACATGACT | 1.13 ± 0.025
ATTTAAAACC | 1.06 ± 0.015
CAGGTAAGCG | 0.969 ± 0.051
CATGTGGTCA | 1.03 ± 0.046
GGGAAAGGGG | 1.01 ± 0.02
AGAAAAAAGG | 1.23 ± 0.42
TCTGCATGGT | 1.07 ± 0.013
GTTGGCCCGG | 0.997 ± 0.022
AGTACATAGT | 0.99 ± 0.024
ACCAAATTCA | 1.04 ± 0.0087
TGCAGGGGTA | 1.12 ± 0.2
GGGGATACTG | 1.31 ± 0.33
CCTTAAGGCG | 1.023 ± 0.0026
GCCCGTTACG | 1.02 ± 0.055
GACGAAGCGG | 2.41 ± 0.047
TTAGCTTGAG | 1.01 ± 0.013
GGGGTAACGT | 0.983 ± 0.02

Sequence | switch fluorescence ratio
CTTAACCATT | 0.98 ± 0.014
GGGGGGCTAG | 1 ± 0.058
GATCGAGAGG | 0.98 ± 0.025
AGTGTGGGCG | 1.04 ± 0.02
AGGGGGAGTT | 0.979 ± 0.025
CCGGTAAGGA | 0.994 ± 0.015
GAACGACCGC | 1.34 ± 0.065
TACTAGGCAA | 1.21 ± 0.04
TGGTGAGGCT | 0.9694 ± 0.0037
CGGGGAAGGT | 1 ± 0.031
TCAAGAGTTA | 0.99 ± 0.035
CCGGGAGTGT | 1.12 ± 0.013
CGACCTACAG | 1.02 ± 0.02
TACCTAGGGG | 1.06 ± 0.039
GGGGCGTGCA | 1.03 ± 0.034
GGGCGACGGG | 0.996 ± 0.046
TATTCGGGGT | 0.99 ± 0.028
GATTGACCCT | 1.048 ± 0.0092
AATACGATGC | 1.2 ± 0.091
GCACTCGGGA | 1.03 ± 0.027
GAGAGGAGGC | 1.07 ± 0.063
AGTTGGCGGC | 1.02 ± 0.039
TTTGAAAACG | 1.02 ± 0.033
TGGACACTGC | 1.02 ± 0.011
TCAGTCAACC | 1.1 ± 0.017

Sequence | switch fluorescence ratio
ATCCCGGGAT | 1 ± 0.022
CCAAGGAGAC | 1.35 ± 0.052
AATTAATTTT | 0.995 ± 0.038
TAGGTCGATA | 1 ± 0.023
ACGGGCAGGG | 1.03 ± 0.041
GTTTGTGAAT | 0.9814 ± 0.0086
GGGGTCGGCC | 0.995 ± 0.018
GATAGATAGG | 0.967 ± 0.055
GATGGTGTGG | 0.997 ± 0.015
AGTCCGATTT | 1.03 ± 0.061
TTCGGGAATT | 1.1 ± 0.11
TTAGGGGAGT | 1.02 ± 0.066
TACGGATACA | 1.18 ± 0.048
GACATTATGC | 1.03 ± 0.014
GAGTTGGGAT | 1.01 ± 0.011
TGGGATTTGG | 0.98432 ± 0.00062
GTGGTGGGGG | 0.992 ± 0.034
GGATAGATGG | 0.986 ± 0.02
TTTAAGTATT | 0.999 ± 0.02
AAGTAGGCAC | 1.022 ± 0.0018
TATTGTGGAG | 0.983 ± 0.024
CTGTGGGTTG | 1 ± 0.042
AGGGGGTTAT | 1.01 ± 0.03
GACGCGTCTC | 1.033 ± 0.0057
ATTTTGAATC | 0.973 ± 0.013

Sequence | switch fluorescence ratio
ATGTCGGCTT | 1.03 ± 0.018
TGAATGTGGT | 0.97 ± 0.014
TTTGCCGGGT | 0.998 ± 0.046
TAGTAATTGA | 1 ± 0.02
GGGTCAGCTG | 0.986 ± 0.036
ATGATCAGGG | 1.009 ± 0.01
GGGTGATGGA | 0.991 ± 0.026
GGGGTTGGCT | 0.995 ± 0.03
GCTATAGCGT | 0.9958 ± 0.0063
CAGAACGCTG | 1.35 ± 0.12
TGGGGCAGCA | 1.01 ± 0.042
AAGGGTCAGC | 0.9917 ± 0.0081
TCTTAAAGGT | 0.986 ± 0.026
ATTACCGGCG | 0.996 ± 0.025
GTACGGGGGT | 0.996 ± 0.059
TCGGAAAGGG | 0.9961 ± 0.0049
GCTAAAGAAA | 0.974 ± 0.028
TGAAAATCGG | 0.965 ± 0.02
GATCTATTTT | 1.01 ± 0.018
GGTAAGGGCC | 1.01 ± 0.034
GAACTACAGG | 0.987 ± 0.041
TTTCTAAGGG | 1.07 ± 0.061
AATCCTGTTT | 1.01 ± 0.067
CACTGGCATG | 0.998 ± 0.029
CACTTAGGTG | 1.19 ± 0.032
